Experimental data: the nanobody polyreactivity screen of Harvey et al. (2022)

Test: yeast display, Sf9 membrane polyspecificity reagent, FACS + sequencing; frameworks hold sequencing errors
Method in brief: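 Genes from sorted yeast were amplified by colony PCR, read by MiSeq 2 × 250 sequencing and filtered on CDR length. These cells carried a synthetic nanobody library in Saccharomyces cerevisiae BJ5465 and were sorted by FACS into low and high (top ~1%) gates on anti-HA and streptavidin fluorescence. Polyreactivity is labelled according to the gate of origin.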
With “QVQLVESGGGLVQAGGSLRLSCAASGSIFSSYAMGWYRQAPGKERELVAVITSGDSTNYADSVKGRFTISRDNAKNTVYLQMNSLKPEDTAVYYCAAGTQAHAYVVRPIEMDYWGQGTQVTVSS” the “polyreactivity (PSR sort gate)” value was “low polyreactivity”. For “QVQLVESGGGLVQAGGSLRLSCAASGSIFSTNAMGWYRQAPRKERELVAAITYSGSRTYYADSVKGRFTISRDNAKNTVYLQMNSLKPEDTAVYYCAADTSWYSWWFDYWGQGTQVTVSS”, the “polyreactivity (PSR sort gate)” value was “low polyreactivity”. In the case of “QVQLVESGGGLVQAGGSLRLSCAASGSIFSTNGMGWYRQAPGKERELVAAISTGGRTYYADSVKGRFTISRDNAKNTVYLQMNSLKPEETAVYYCAKDHWTTTYDEGDYWGQGTEVTVSS”, the “polyreactivity (PSR sort gate)” value is reported as “low polyreactivity”. With “QVQLVESGGGLVQAGGSLRLSCAASGSIFSTYAMGWYRQAPGKERELVAAISGSGGRTYYADSVKGRFTISRDNAKNTVYLQMNSLKPEDTAVYDCASRVFRGLGEYYWGQGTQVTVSS” the “polyreactivity (PSR sort gate)” value was “high polyreactivity”. In the case of “QVQLVESGGGLVQAGGSLRLSCAASGSIFSTYAMGWYRQAPGKERELVAAISGSGGSTYYADSVKGRFTISRDNAKNTVYLQMNSLKPEDTAVYYCNRLPYVSSAYVGLGYWGQGTQVTVSS”, the “polyreactivity (PSR sort gate)” value is reported as “high polyreactivity”. With “QVQLVESGGGLVQAGGSLRLSCAASGSIFSTYAMGWYRQAPGKERELVAAISVSGSSTYYADSVKGRFTISRDNAKNTVYLQMNSLKPEDTAVYYCNKAFRSVRPRRRYDYWGQGTQVTVSS” the “polyreactivity (PSR sort gate)” value was “low polyreactivity”. For “QVQLVESGGGLVQAGGSLRLSCAASGSIFSTYAMGWYRQAPGKERELVAAITSDGTYADSVKGRFTISRDNAKNTVYLQLNSLKPEDTAVYYCNKDIKSATDSYHYEDDYWGQGTQVTVSS”, the “polyreactivity (PSR sort gate)” value was “low polyreactivity”. For “QVQLVESGGGLVQAGGSLRLSCAASGSIFSTYAMGWYRQAPGKERELVATINYSGGSTYYADSVKGRFTISRDNAKNTVYLQMNSLKPEDTAVYYCNTGPFVGFDYWGQGTQVTVSS”, the “polyreactivity (PSR sort gate)” value was “low polyreactivity”. In the case of “QVQLVESGGGLVQAGGSLRLSCAASGSIFSVNAMGWYRQAPGKERELVATIRWSGSSTYYADSVKGRFTISRDNAKNSVYLQMKSLKPEDTAVYYCAADSTEIPWCGMDYWGQGTQVTLSS”, the “polyreactivity (PSR sort gate)” value is reported as “low polyreactivity”. For “QVQLVESGGGLVQAGGSLRLSCAASGSIFSVNAMGWYRQAPGKETELVAGITISGGRTYYADSVKGRFTISRDNAKNTVYLQLNSLKPEDNAVYYCAADWVYPPGLKDSVHFGEYDYWGEGTQVTVSS”, the “polyreactivity (PSR sort gate)” value was “low polyreactivity”. In the case of “QVQLVESGGGLVQAGGSLRLSCAASGSIFSVYAMGWYRQAPGKERELVAAINWDGTSTDYADSVKGRFTISRDNAKNTVYLQMNSLKPEDTAVYYCAAEGHTAFLVYRVSPLQYDYWGQGTQVTVSS”, the “polyreactivity (PSR sort gate)” value is reported as “low polyreactivity”. For “QVQLVESGGGLVQAGGSLRLSCAASGSIFSVYAMGWYRQAPGKERELVAAISRSGGSTYYADSVKGRFTISRDNAKNTVYLQMNSLKPEDTAVYYCAARLAGRGSSSSRVVRTGGYWGQGTQVTVSS”, the “polyreactivity (PSR sort gate)” value was “high polyreactivity”. With “QVQLVESGGGLVQAGGSLRLSCAASGSIFSVYAMGWYRQAPGKERELVAVIWRGGSTNYADSVKGRFTISRDNAKNTVYLQMNSLKPEVTALYYCNARTFYRKFWYQFVSSYGYDYWGQGTQVTVSS” the “polyreactivity (PSR sort gate)” value was “low polyreactivity”. In the case of “QVQLVESGGGLVQAGGSLRLSCAASGSIFSVYVMGWYRQAPGKESELVAAISWSDRDTYYADSVKGRFTISRDYAKNTVDFQMNSLKPVDTAVYYGAAETFDYDVYIANGSGEYDYWGQVTQVTVSS”, the “polyreactivity (PSR sort gate)” value is reported as “high polyreactivity”. For “QVQLVESGGGLVQAGGSLRLSCAASGSIFSWYAMGWYRQAPGKERELVAAIDSGSKYYADSVKGRFTISRDNAKNTVYLQMNSLKPEDTAVYYCAVDYGYYYWEPWPSDYDMYSWGQGTQVTVSS”, the “polyreactivity (PSR sort gate)” value was “high polyreactivity”. With “QVQLVESGGGLVQAGGSLRLSCAASGSIFSWYAMGWYRQAPGKERELVAAISWSSGSTYYADSVKGRFTISRDNAKNTVYLQMNSLKPEDTAVYYCAADATYLGWYELYYWGQGTQVTVSS” the “polyreactivity (PSR sort gate)” value was “high polyreactivity”. In the case of “QVQLVESGGGLVQAGGSLRLSCAASGSIFSYNAMGGYRPAPGKARELVAAITLSDGGTYYADSVKGRFTISRDNAKNTVYLQMNSLKPEDTAVYYCATTYWLWITYSAYYYWGQGSQVTVSS”, the “polyreactivity (PSR sort gate)” value is reported as “low polyreactivity”. In the case of “QVQLVESGGGLVQAGGSLRLSCAASGSIFSYNAMGWYRKAPGKERELVAAIRASGGDTYYADSVKGRFTISRDNAKNTVYLQMNSLKPEDTAVYYCAARTYAHHYASHGYWGQGTQVTVSS”, the “polyreactivity (PSR sort gate)” value is reported as “low polyreactivity”. With “QVQLVESGGGLVQAGGSLRLSCAASGSIFSYNAMGWYRQAPGKERELVAAITSGDSTNYADSVKGRFTISRDNAKNTVYLQMNSLKPEDTAVYYCAADPVLPAFGYVGTSLGDYWGQGTQVTVSS” the “polyreactivity (PSR sort gate)” value was “low polyreactivity”. In the case of “QVQLVESGGGLVQAGGSLRLSCAASGSIFSYTMGWYRQAPGKERELVAAITSGGITYYADSVKGRFTISRDNAKNTVYLQMNSLKPEDTAVYYCNKDVGFTRPLYYWGQGTQVTVSS”, the “polyreactivity (PSR sort gate)” value is reported as “low polyreactivity”. In the case of “QVQLVESGGGLVQAGGSLRLSCAASGSIFSYYAMGWSRQAPGKERELVAAISWGDDSTYYADSVKGRFTISRDNAKNTVYLQMNSLKPEDTAVYYCAADRVGWYRTFDYWGQGTQVTVSS”, the “polyreactivity (PSR sort gate)” value is reported as “low polyreactivity”. In the case of “QVQLVESGGGLVQAGGSLRLSCAASGSIFSYYAMGWSRQEHGKERELVAAITRSGSTNYADSVKGRFTISRDNAKNTVYLQMNSLKPEDTAVYYCARRHYSSRVIYVSSKGGYWGQGTQVTVSS”, the “polyreactivity (PSR sort gate)” value is reported as “high polyreactivity”. For “QVQLVESGGGLVQAGGSLRLSCAASGSIFSYYAMGWYRPAPGKERELVAAISWSGGSTYYADSVKGRFTISRDNAKNTVSLQMNSLIPADTAVYYCAAGVTYEKQTKYYYWGQGTQVTVSS”, the “polyreactivity (PSR sort gate)” value was “high polyreactivity”. In the case of “QVQLVESGGGLVQAGGSLRLSCAASGSIFSYYAMGWYRQAPGKERELVAAISGDSGRTYYADSVKGRFTISRDNAKNTVYLQMNSLKPEDTAVYYCNARVAYRYRTGYDYWGQGTQVTVSS”, the “polyreactivity (PSR sort gate)” value is reported as “high polyreactivity”. With “QVQLVESGGGLVQAGGSLRLSCAASGSIFSYYAMGWYRQAPGKERELVAAISSGVSSTYYADSVKGRFTISRDNAKNTVYLQMNSLKPEYTAVYYCNADRPYRLNEYWGQGTQVTVSS” the “polyreactivity (PSR sort gate)” value was “high polyreactivity”. In the case of “QVQLVESGGGLVQAGGSLRLSCAASGSIFSYYAMGWYRQAPGKERELVAAISWTGGSTYYADSVKGRFTISRDNAKNTVYLQMNSLKPEDTAVYYCAADSPRSDRDSYDYWGQGTQVTVSS”, the “polyreactivity (PSR sort gate)” value is reported as “high polyreactivity”. For “QVQLVESGGGLVQAGGSLRLSCAASGSIFSYYAMGWYRQAPGKERELVAAITIRGGRTYYADSVKGRFTISRDNAKNSVYLQMNSLKPEDTAVYYCAAETGHKQHGYTYEVSRRCYGYWGQGTQVTVSS”, the “polyreactivity (PSR sort gate)” value was “low polyreactivity”. For “QVQLVESGGGLVQAGGSLRLSCAASGSIFSYYAMGWYRQAPGKERELVAAITISGSSTYYADSVKGRFTISRDNAKNTVYLQMNSLKPEDTAVYYCNVVPLGSKNSVSHYYWGQGTQVTVSS”, the “polyreactivity (PSR sort gate)” value was “high polyreactivity”. In the case of “QVQLVESGGGLVQAGGSLRLSCAASGSIFSYYAMGWYRQAPGKERELVAAITTNTGNTYYADSVKGRFTISRDNAKNTVYLQMNSLKPEDSAVYYCAKSGVADFYYTYYYWGQGTQVNVSS”, the “polyreactivity (PSR sort gate)” value is reported as “low polyreactivity”. For “QVQLVESGGGLVQAGGSLRLSCAASGSIFSYYAMGWYRQAPGKERELVAAITTSGGSTYYADSVKGRFTISRDNAKNTVYLQMNSLKPEDTAVYYCNAGPYWWYYGEDYWGQGSQVTVSS”, the “polyreactivity (PSR sort gate)” value was “low polyreactivity”. In the case of “QVQLVESGGGLVQAGGSLRLSCAASGSIFSYYAMGWYRQAPGKERELVADITANDGSTYYADSVKGRFTISRDNAKNTVYLQMHSLKPEVTAVYYCAAASDLYGSIWIETGVTSDYWGQGTQVTVSS”, the “polyreactivity (PSR sort gate)” value is reported as “high polyreactivity”. For “QVQLVESGGGLVQAGGSLRLSCAASGSIFSYYAMGWYRQAPGKERELVADITVRGGSTYYADSVKGRFTISRDNAKNTVYLQMNSLIPEDTAVYYCAADWLDESFSYGPYYYWGQGTQVTVSS”, the “polyreactivity (PSR sort gate)” value was “low polyreactivity”. For “QVQLVESGGGLVQAGGSLRLSCAASGSIFSYYTMGWYRQAPGKERELVAAISFRGTSTYYADSVKGRFTISRDNAKNTVYLQMNSLKPEDTAVYYCAKRALYYPTYPKYDTYNRYYWGQGTQVTVSS”, the “polyreactivity (PSR sort gate)” value was “high polyreactivity”. For “QVQLVESGGGLVQAGGSLRLSCAASGSIFTAYALGWYRQAPGKERELVAAIDDSGDSTYYADSVKGRFTISRDNAKNTVYLQMHSLKPEDTAVNYCKAEYRVNKEYDYWGQGTQVTVSS”, the “polyreactivity (PSR sort gate)” value was “low polyreactivity”. In the case of “QVQLVESGGGLVQAGGSLRLSCAASGSIFTAYAMGWYRPAPGKERELVAAITSGGSTNYADSVKGRFTISRDNAKNTVYLQMNSLKPEDTAVYYCNADDYWLDSWSSVLWYDYWGQGTQVTVSS”, the “polyreactivity (PSR sort gate)” value is reported as “low polyreactivity”. With “QVQLVESGGGLVQAGGSLRLSCAASGSIFTEYAMGWYRQAPGKERELVAAISWSGATTYYADSVKGRFTISRDNAKNTVYLQMNSLKPEDTAVYYCAARWANRSYEYWGQGTQVSVSS” the “polyreactivity (PSR sort gate)” value was “low polyreactivity”. With “QVQLVESGGGLVQAGGSLRLSCAASGSIFTFYAMGWYRQAPGKERELVARITRGVSTNYADSVKGRFTISRDNAKITVYLQLNSLKPEDTAVYYCAAESGNRYEYWGQGTQVTVSS” the “polyreactivity (PSR sort gate)” value was “low polyreactivity”. For “QVQLVESGGGLVQAGGSLRLSCAASGSIFTGNAMGSYRQAPGKERELVAAISSSGARTYYADSVKGRFTISRDNAKNTVNLQMNSLKPEDTAVYYCNADSYTLYGLYDYWGQGTKVTVSS”, the “polyreactivity (PSR sort gate)” value was “low polyreactivity”. In the case of “QVQLVESGGGLVQAGGSLRLSCAASGSIFTHNAMGWYRQAPGKERVLVAAISSGGSTNYADSVKGRFTISRDNAKNTVYLQMNSLKPEDTAVYYCAKSIDGWYWRRRRYDYWGQGTQVTVSS”, the “polyreactivity (PSR sort gate)” value is reported as “low polyreactivity”. In the case of “QVQLVESGGGLVQAGGSLRLSCAASGSIFTHYAMGWYRQAPGTERELVAGITSSGGSTYADSVKGRFTISRDNAKNTVYLQMNSLKPEDTAVYYCAAEQLRSRLIEYDYWRQGTQVTVSS”, the “polyreactivity (PSR sort gate)” value is reported as “low polyreactivity”. In the case of “QVQLVESGGGLVQAGGSLRLSCAASGSIFTINAMGWYRQAPGKERELVAAISFSGGRTYYADSVKGRFTISRDNAKITVYLQMNSLKPEDTAVYYCAAPFYYYGVRFDYWGQGTQVTVSS”, the “polyreactivity (PSR sort gate)” value is reported as “high polyreactivity”. For “QVQLVESGGGLVQAGGSLRLSCAASGSIFTIYAMGWYRQAPGKERELVAAIRESSGSTYYADSVKGRFTISRDYAKNTVYFQINSLKPEDTAVYYCAADINYSSYDYWGQGTQVTVSS”, the “polyreactivity (PSR sort gate)” value was “high polyreactivity”. In the case of “QVQLVESGGGLVQAGGSLRLSCAASGSIFTIYAMGWYRQAPGKERELVATITGIADSTYYADSVKGRFTISRDNAKNTVYLQMNSLKPEDTAVYYCAADKYVAEYDYWGQGTQVTVSS”, the “polyreactivity (PSR sort gate)” value is reported as “low polyreactivity”.
